According to article PMC8403554 (Cell, 2019):

B1: humanized 31A.v11 IgG4 anti-tryptase antibody (antibody, V domains shown)
VH: EVQLVESGGGLVQPGGSLRLSCAASGFTFSDYGMVWVRQAPGKGLEWVAFISSGSSTVYYADTMKGRFTISRDNSKNTLYLQMNSLRAEDTAVYYCTRRNYDDWYFDVWGQGTLVTVSS
VL: DIQMTQSPSSLSASVGDRVTITCSASSSVTYMYWYQQKPGKSPKPWIYRTSDLASGVPSRFSGSGSGTDFTLTISSLQPEDFATYYCQHYHSYPLTFGQGTKVEIK
B2: soybean trypsin inhibitor (natural protein, UniProt P01070 25-205, looked up)
chain: DFVLDNEGNPLENGGTYYILSDITAFGGIRAAPTGNERCPLTVVQSRNELDKGIGTIISSPYRIRFIAEGHPLSLKFDSFAVIMLCVGIPTEWSVVEDLPEGPAVKIGENKDAMDGWFRLERVSDDEFNNYKLVFCPQQAEDDKCGDIGISIDHDDGTRRLVVSKNKPLVVQFQKLDKESL
B3: tetrameric βI-tryptase (insect cells) (enzyme)
chain: not shown

How the values were obtained:
[1] = target: human βI-tryptase monomer (Homo sapiens, beta-I allele of TPSAB1, UniProt Q15661); test: SPR
[2] = target: B3; test: crystal structure
[3] = target: the molecule itself; test: SEC

Sequence of human βI-tryptase monomer (Q15661 31-275): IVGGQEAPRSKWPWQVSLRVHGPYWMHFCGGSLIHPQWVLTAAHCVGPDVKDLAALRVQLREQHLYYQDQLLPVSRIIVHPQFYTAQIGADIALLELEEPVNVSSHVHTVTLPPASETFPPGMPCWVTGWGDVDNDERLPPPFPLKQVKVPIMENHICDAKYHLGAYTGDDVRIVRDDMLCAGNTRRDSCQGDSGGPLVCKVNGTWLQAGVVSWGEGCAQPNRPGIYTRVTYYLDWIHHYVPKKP

Binder: B1
fold improvement in binding affinity (Kd) over the parental 31A clone [1]: ~10 fold

Binder: B2
binding result [2]: binds

Binder: B3
stoichiometry N [3]: 4
